47 sequences from the NTF2 design screens of Basanta et al. (2020) can be followed below.

A short description of the data set: protease stability score; higher = more stable; yeast display proteolysis, trypsin and chymotrypsin.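 Further: log10 excess protease needed over predicted unfolded state with 0 meaning unfolded.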
In turn, “DEELYKLMEQVIKAWEENDETQLKRLADPNVKVSIGDKRVHGRDQMAEDAKRRKKQLRFNIDIKSYSVHNGRVNARATVHNDVNGQPREDTVNIQMEWSNGQLTNFNMRMDEDFLRKIRS” had a protease stability score of 0.752.
The result for “DEEMEKRWEEWLDAVTTGDESRVREYMDPNVRYNYGDKHYTGREEIAHDTVREVKRIRIEIKTMSNDDQGEHVRVRFNRVKNDNGEPKEEVLVVEFTQENGRITEATQHEDR” reads -0.004; that for “DEEMLEVVKQLLHAYQNGDEEKVKRLLDPNARVQVGDQVVHGRESYANEVRKERDEIRFDVKITSVKVHNGKIDIKADVHVNINGKPVKFDVIIEYKMEGDKIKQINVQMDPSQWKERES”, 0.913; that for “DEEMNKRAKRLVDVLRTGDFREFLEMVDPNARVQIGDKSWHGMEDYVHDLKEKRDQIKMHYEVKHMTAHDGRAHLEIDAEANVNGQPLSFSFTLHLQFQNGRVTHAEYQLDEDRLRKLEQ”, 0.911.
The result for “DEENADVIRRFLDAIHTGNPDDARKNADPNAQYKIGDKTYSGMERWVKTLQDQKRHQEIDIKIKHISVKGDKITVEFVVVVNINGRPVSFSAILSAEVKNGKIKHLQYHISEEQKRKVEG” reads 0.222; that for “DEENAERLKKIFRAVQENDSKQIERNFDPNAEVTYGDKTVTGREEQSREYHKILHEIRVRIQIKHVKVHNGRLSIHAKMDREHNGEPDDATLIVEAHFHNGKATEQQNDVHK”, 0.44.
Sequence “DEENAHEAVRIWETGDPQENADLVDPNVHARYGDKKIRGREDMEEFWRRMHHQIDHKDVRDIQVSGNHIEIDMEINVDGVRARYVARYHMDNGKIKSANAEFRDPDEKQDIRRALD” showed a protease stability score of 0.275.
To “DEENAKIIENLIRANETNDPDRAVQLADENVDFRIGDRTYRGMDEYATQMAHEFKEIEMRIHLKTFDTQGEKVRLEADVKRTHNGKPESFRAVMVANASNGRVVEIDVQMDK” belongs 0.974; to “DEENAKTLKQQMNQYQSGDEEEVQENVDKDAKFVIGDKRIHGREKYREQVRRELEDIRIDVKIKHLNDKGEKVQVHARLERNHNGRPTDATVDVVVRWHNGRAKEAQFHTDG”, -0.11.
To “DEENEDIFRKYLEDLKKGDPKKLKEQFDKDAEVKVGDDVLHGRRSIARTLHEERKEMRVEIEDVKVRAHNGQLEVRFQQTVDHNGRPKTVRARMEVKFHNGRIKHLSVDERE” belongs -0.331; to “DEENEDLLRKFVEALERNDEDKIMEQADPNAELRYGDKHIHGREKMRELVQNREKELRLDVKDFEVDVNNGHARITVENVQETNGRPTTTRYRIDASIHNGRLQKVNITSDK”, 0.287; to “DEENEKFARRYLEALKHNNPHEMQNMIDPNATLNVGDTRIDGDDQAKKFWSKKLQEISISIRKVSVEVSGNRIDIDAEYELEHNGKPDVNRRTVHLNVKNGKITDLKVRHDK”, -0.063.
To “DEENEQLFNEFLKAMEHGDPNRLNQLMDPDVHIRVGDKQIHGREEAAREIVRQMKEQNRHIDSIEVSAENGELTVNVEMFQTHDGKPKKYTYRAKIVFENGKIKHIDRKHSQ” belongs 0.884.
In turn, “DEENHRRATELLRAWKTGDEEELKRQMPPDVHIRVGDQEVHGREQAVKHLAQRRREASFRFKIKEYELQGEKIRIVARAEVHHNGEPQRYVVRLVILYRNGQAEEINQQEDG” registered a protease stability score of 1.25.
To “DEENHTLAKMWFHAYNKGDEDQVRRMADPNVKIQIGDKVIHGRNDEVRWLKERRDHQRSDIKLDHVSASNGRVQIHFTFTVQHNGKPNTSKQQLSMVFQGDKLKSLHMRTDG” belongs -0.112; to “DEENIEQLRRMMTNLNTGDFHKMVNLMDPNARVRYGDRQISGREEVRKEWEKIVKSMHIERQVRSIEDHDGRAYADVELRVNVDGRPFSVRFTVVVEVRNGRVKFLEVRVPEEFMEKLDS”, 1.07; to “DEENIRVYQEMLEAIKEGDQKRVQELVDPNVEAVYGESQVHGREDIARDLRRVREESRRDVTTYKVTDTNGQITINVDFFQTHDGRPTRKEASVHVQITNGKVKFVEMRDDQ”, 0.248.
To “DEENKHAAERLMRAIQKGDPDDMVRNMDKDAKVNIGDQQFHGREEVAKQNRKDNKEMRYHQEVKSISVDGDKVTVEATAQFTYNGQPDTFKFSFRAHLHNGRIRHLDVHFDEQTKRDQES” belongs 0.101; to “DEENKKQAERLYTALEKNNPEELKKLADPNARVEVGDTTYHGMRKFLRDLAQTLKELRVEVIEIEIDVQGNQVTAHVHVRVEKNGQPDEFVLIFHFELSNGRIKRVRVERHQ”, 1.12.
To “DEENKKRFDKFQEVQKQGDPKQLQSLMDPNVEWRVGDKNYHGRQEIAKDRIRVQREIRIEFNITHYENHNGRVKIHAEAKAKVNGRPQTYDYSFEVVVHNGKIKELNWRVDPEEVDRIES” belongs 0.67.
In the case of “DEENLDAARRLIDALKNNDPDHAMENADKDVRVHIGDWHVHGREDMSRLIKELVDEMRVDVKDVKTRKDGETAVITIDAVFHVNGEPKRDTFTMNVKAHNGHVQRIHARVSEEDVRKLKQ”, the protease stability score was -0.086.
Sequence “DEENLEIAKDLIRAQETGDEERIQNLLDPNVKIDVGDKSIHGREHLRKTQQEQKRNMRFDVDSVENKVHNGQVRVDAHVRERHNGQPTTKRYTLHMHFHNGKVERIRLQDKG” had a protease stability score of 0.318.
To “DEENLHRRAEQFVKALEHGDQHQFRRMFDENARVEVGDKFFHGREEVARFMRDLTRRIDHVQFRRMEVRGEKIIVKAEAHVNGKRVTIIFDLTVKNGRIKHVRITFTDEKDRREFER” belongs 1.12.
To “DEENLKKVREFLEHLVTGNEREVKHLMDPNAEMEVGDKKYSGTEQLRRLMQELKRHQTNKYDIKDMKVQGNKADLKAKVIERHNGQPDDTEQQFFATMSNGRFKKVSFRTDK” belongs -0.295.
“DEENLNQLKKFWHALQTNNPDQARKLADPNVRLHVGDKSVNGREEMVKRLVDKMHEMEIDYKVRDMHAHNGHIKVEAERVIHDNGQPRRATYEIRVIIKNGRIKEIQIHERQ” displayed a protease stability score of 1.07.
The result for “DEENLNRLDEFQQAVQTGDEKEAEELVDPNARVNVGDKQVNGMDKLRRTIHNKRRKMRVEIDHVNFRAKGNHVTARFDFHVNHNGTPRRTQMNVEARFKNGRIKSLRNESVS” reads 0.121.
To “DEENLQKIAHKVVRALHDGDPHQMHDLFDKDARISYGDKSVHGRNEISKAAHEREERVDDIDFKSFSVKNGHVEVDAKYDHNGQRREVIVQVEMHNGRIKSARFTKK” belongs 0.2; to “DEENLRTLAQEVKDILQTGDEEKLKEMLDKDVRLEVGDHVYEGSENAAKAANHWKERADHIQVDSIEIHGNELRIDVRVNVNGKNIDIDIVVTFSNGRIREMKFQYRDEDEKRQLER”, 0.809; to “DEENLRVVVHLMKAVETGDPTKARRNLDKDVHFNVGNRRIHGREQFQKELDDEKKDISINVKDYRVRDKNGKAHFTVRFVLEVNGRPMEMKITMQAEAHNGRIKHVQQQVSEEDEKRINK”, -0.094.
“DEENMEVLEKVLDAMRTGDKKKVRDNLDKDARIEIGDHVLNGREEFAKWVVQIKKEIKVQINIQSVDVSNGRVRVHAQVEFRVNGQPQQYTIHIVAEIHNGHIKTLRMSFDDDQQRKFES” registered a protease stability score of 0.924.
To “DEENMEVYQTQLKVEQRGNEEELVKLIDPNAEVRIGDKQVKGRENIAHTIKQETDKMERKIESLNLSAHNGEIHIKATVVQTHNGEPRTDSYVMRIHLHNGRLKQMDVHKSN” belongs 0.541; to “DEENMHKLQEIIRTNDETKFNEMMDPNVEIEVGNKTYHGREEAIKFQRRVNQHVDKIQVDYVEVQGDSLRADYVVQVNGQNVRVDLEIRVEDGRAKEIRLNFRNEEEHKMYEKWLS”, 1.34.
On to “DEENQKIFDEYVKALRTNNPERLNEMLDPNARVQVGDKEVHGMDDLSRTVNQMIDNLHLNLKIESVHVRGNTLSVDAEYVLNVNGKPQRRSVEIEIHAHNGTVKFLRMRVDPREEQKIKS”, for which the protease stability score was 0.363.
To “DEENQKQIKKIWHAWEKGDEQKAQDMVDPNVNIQVGDKHISGQDSLREDLRRKRHEMRVRVRFHDINIDENHISVKIEVLNEKNGRPSTKVVVFEATVHNGKIKSMEFRDDD” belongs 0.494; to “DEENQQDYARKMNEMIVQNDPDEALRLFDPNVKVDIGDTRIDGRHDLERWVEDLKKQVDHVQLHDVKFRGDHASIHIEMTVNGRTISQIYHIVFHNGKAKEMKVETK”, 0.567.
The result for “DEENQRLAEEFIRAFEKGNPDQAATMADPNVKIDIGEKRIHGHEELKKWIEELQRQMRVEVEHYEVEADGDKVIARLIFRQEHNGKPQEDKEQVNIRFHNGRAKSVTIRSTK” reads 0.028; that for “DEENREVAERWLDALKRGDPKKANEQMDPNARLRVGNKTVHGREDFEQMIRKWQEHMSFSVETMTVQVEGNKIIIKATREVVVNGRPHKDTFEFEIEIQNGKIKEITIHFPEQELKEIED”, 0.815; that for “DEENREVMERFVQAFNRNNPDQLNTNADPNAKFVIGDKTINGRERMKKWQEEQNTHMRQHLEVTSISVHGNSITARVRMQFQVNGQPQEVDLTLHATIHNGQIKQLTFNLDKDEKKQIDK”, -0.133.
Consider “DEENRHAAEQYLTALRTGDEEQLKKNADPNVRVQVGDKQWTGMERYAHDQVRQLKEIHIEIKVDDIKVSNGEVDMKAERNSNHNGKPSRNRASLTIVVHNGKIQEIHWQEDS”, for which the protease stability score was -0.47.
To “DEENRHQINEMWKQIQTNNPDEVMKQLDKDVQVVVGDKQIRGREEFAKHVEQLLREMDVEYHSIKVKVHNGEAHVKVRHTVDVNGKPREDTLDVQLQMKNGHVKHFELRIDEDKLEKLKR” belongs -0.169; to “DEENRHVAQELVKAEKSGDPKRAQELLDPNVRINVGDKTVQGREQHTQELEREKRELRIRIKSMHLKVEGDHVRIEATVSKTQDGQPRESKRSISIHMKNGKAKNIQVTYHK”, 0.13.
The result for “DEENRKDAEKYMKVTENNNPDEVSKLVDPNAKLEIGDKTYHGDEWMMDQQQQDRDQARIEVKRVDIKVHNGQINARVRFVKEENGKPDRRDVDIKMNIHNGRLKRAQFKHTE” reads 0.064; that for “DEENRKIAKKLVEAMHTNDEETLEKMFDPNVRFDVGDREVHGKEQWKREQHKKNREARFEIQRYTISYEGDKAVVRIHQVEDHNGQPREDTYVMHVEVHNGKVKRVVQRKDS”, -0.129; that for “DEENRKILSEVLQALQEGDEHRVRELMDPNARFQVGDKVITGMDNIKKHLQELKRQIKWHFTMKSISAHDGQARATADAEYNHNGRPQDVRVTFRVVFHNGEVHHFSYDYKP”, 0.583.
The result for “DEENRKQFEEIVRVWNKGDEKRFNNLFDPNARFRYGDKEYKGNQSLMNWWRHLKKQARVEIDVKEVHVDGDKVHAHFRVTFDINGRPETQDVDVVLTVQNGRAKNFDNRIDPEFMRRVQS” reads 0.141; that for “DEENRKVFEEILEAKKRGDPKQLERNVDPNVKIYYGDKDFHGRSQLSKELEKVRRELHLHLDFKRIEYHGDSVDVELKVNQQHNGKPDESDRVFHARLHNGRLEHVDARDRK”, -0.019.
Regarding “DEENRQLAENFLTAMEDNNPEHLSELADPNAKFHYGNKRIHGREKFMHEVEHRNKRIRYSIKSYKITVSGDKIEIDLTFTFRHNGQPDERRRTIHMQMENGQIRSVEYNDNK”, the protease stability score is 0.337.
